Test results reported in US20140314790A1 (ALBERT EINSTEIN COLLEGE OF MEDICINE OF YESHIVA UNIVERSITY, published 2014).

Experiments:
[1] = target: T1, amyloid precursor protein (APP), transfected into HeLa or HEK293 cells (UniProt P05067 18-770); experiment: α-Flag IP from HeLa/APP cells incubated with Flagged peptide, Western blot for APP
T1 construct: whole, on cells; Scheinfeld et al, 2002)'; also called mature APP; HeLa-APP

[2] = target: T2, β-CTF (C-terminal fragment of APP made by β-secretase cleavage) (UniProt P05067 672-770); experiment: α-Flag IP from HeLa/APP cells incubated with N3-2A-F, Western blot for APP-CTFs
T2 construct: domain: β-CTF; also called APP-CTF
T2 sequence (P05067 672-770 limits assumed): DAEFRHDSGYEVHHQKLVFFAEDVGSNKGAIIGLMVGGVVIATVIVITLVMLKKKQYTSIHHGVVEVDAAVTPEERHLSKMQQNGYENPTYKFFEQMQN

T1 sequence (P05067 18-770): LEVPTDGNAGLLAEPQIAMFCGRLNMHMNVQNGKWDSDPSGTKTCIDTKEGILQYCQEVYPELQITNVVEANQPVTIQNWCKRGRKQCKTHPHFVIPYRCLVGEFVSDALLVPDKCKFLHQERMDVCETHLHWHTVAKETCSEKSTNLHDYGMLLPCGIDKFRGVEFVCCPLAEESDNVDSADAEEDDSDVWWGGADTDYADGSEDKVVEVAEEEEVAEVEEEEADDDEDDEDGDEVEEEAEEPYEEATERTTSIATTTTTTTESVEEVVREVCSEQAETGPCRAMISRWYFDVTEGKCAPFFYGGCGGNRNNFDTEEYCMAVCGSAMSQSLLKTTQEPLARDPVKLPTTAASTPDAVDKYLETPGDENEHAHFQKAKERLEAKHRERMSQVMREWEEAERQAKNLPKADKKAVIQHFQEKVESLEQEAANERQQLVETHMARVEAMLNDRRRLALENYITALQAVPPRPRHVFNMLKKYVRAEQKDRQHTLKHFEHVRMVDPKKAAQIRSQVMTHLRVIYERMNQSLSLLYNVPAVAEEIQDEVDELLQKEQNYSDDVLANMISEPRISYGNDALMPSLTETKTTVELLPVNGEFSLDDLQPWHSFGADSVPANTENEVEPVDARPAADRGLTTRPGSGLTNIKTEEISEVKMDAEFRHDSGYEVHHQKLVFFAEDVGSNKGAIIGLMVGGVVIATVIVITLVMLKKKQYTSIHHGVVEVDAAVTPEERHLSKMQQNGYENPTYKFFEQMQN

Row | Binder | binding result [1] | binding result [2]
1 | DDVAYCGLKY (peptide, not shown: small tags and cut ends) [N3-4A-F (single amino acid N3 mutant N3-4A with Flag epitope)] | no binding (tested: 40 µM) | 
2 | DAVYYCGLKY (peptide, not shown: small tags and cut ends, also called BRI2-derived peptide) [N3-2A fused to a C-terminal Flag epitope (N3-2A-F)] |  | no binding (tested: 40 µM)
